Results on two molecules are retold here after patent US20230192860A1 (Bristol-Myers Squibb, published 2023).

The target in assay [1] is T1, monovalent hVISTA-ECD (amino acids 32-193 of SEQ ID NO: 1 with a 7xHis tail) (human, UniProt Q9H7M9 33-193).
T1 construct: analyte of the SPR assays; also called huVISTA-His; human VISTA-ECD
As to the kind of experiment: SPR, pH 7.4 over pH 6.0. How it is done: Further binding kinetic experiments were performed at various pHs on VISTA antibodies described herein by SPR as generally described in Example 9 above. Antibodies were normalized to 50 nM concentration in PBST pH 7.4 and captured on a Protein A CM5 chip (ID 4931) by injecting for 45 seconds at a 5 µL/min flow rate. An 8-point human VISTA titration ([…]) was prepared in PBST at pH 7.4, 6.9, 6.45, and 6.0. Titrations were injected over the captured antibodies for 180 seconds at 30 µL/min. Sensorgrams were fit to a 1:1 binding model in T200 evaluation software and the kinetic constants were reported.
Each table reports the data at one of the four tested pHs (7.4, 6.9, 6.45, and 6.0, respectively). The 8-point hVISTA titration used in these assays was chosen to provide increased confidence in kinetic values reported at neutral pH conditions. A relatively stringent cutoff for non-binding was applied in this assay. Certain progeny of P1-061029 antibody (P1-068757, ‘759, ‘765, ‘771, and ‘775) show no binding to hVISTA at micromolar concentrations at pH 7.4, while ‘761 and ‘767 show no binding to hVISTA at 100 nM at pH 7.4 but do show binding to hVISTA at micromolar concentrations.
(SPR reads the build-up and loss of mass on a sensor chip optically.)

The target in assay [2] is T1, monovalent hVISTA-ECD (amino acids …). Nature of the assay: SPR 37C, pH 7.4 over pH 6.0. How it is done:
Human VISTA binding kinetics of P1-061029 (“ ‘029”), P1-068761 (“ ‘761”) and P1-068767 (“ ‘767”) (as IgG1.3 antibodies) were measured at pH values between pH 7.4 and pH 6.0, i.e., at pH 6.9 and pH 6.45 using a Biacore® T100 instrument (GE Healthcare). […] Antibodies were diluted to 25 nM in PBST pH 7.4, and were captured across active biosensor flow cells at 5 ul/min for 45 seconds. A concentration series of 100 - 0.78 nM monovalent hVISTA-ECD (SEQ ID NO: 325) was prepared pH 7.4, 6.9, 6.45 and 6.0 running buffers, and was injected over the captured antibodies at 40 ul/min to measure association and dissociation. Two 15 second injections of 10 mM glycine pH 1.5 were used to regenerate the Protein A capture surface between assay cycles. Rate constants ka (kₒₙ) and kd (koff) were derived from reference flow cell and 0 nM blank-subtracted sensorgrams, and were fit to a 1:1 binding model in Biacore® T200 Evaluation Software v.2.0. The affinity constant, KD was calculated as the ratio of rate constants koff/kₒₙ for each VISTA antibody. Ratios of koff and KD at each pH relative to pH 6.0 were calculated to evaluate how the VISTA koff and KD change as the buffer pH shifts to physiological, and are shown in Table 7. […] As the buffer pH shifts from acidic to physiological, VISTA koff and KD both weaken for ‘761 and ‘767. […]

Assay [3] shares this target. Nature of the assay: SPR 37C, Ab on Protein A, hVISTA-ECD 100-0.78 nM, pH 7.4. How it is done:
Human VISTA binding kinetics of P1-061029 (“ ‘029”), P1-068761 (“ ‘761”) and P1-068767 (“ ‘767”) (as IgG1.3 antibodies) were measured at pH values between pH 7.4 and pH 6.0, i.e., at pH 6.9 and pH 6.45 using a Biacore® T100 instrument (GE Healthcare). […] Antibodies were diluted to 25 nM in PBST pH 7.4, and were captured across active biosensor flow cells at 5 ul/min for 45 seconds. A concentration series of 100 - 0.78 nM monovalent hVISTA-ECD (SEQ ID NO: 325) was prepared pH 7.4, 6.9, 6.45 and 6.0 running buffers, and was injected over the captured antibodies at 40 ul/min to measure association and dissociation. Two 15 second injections of 10 mM glycine pH 1.5 were used to regenerate the Protein A capture surface between assay cycles. Rate constants ka (kₒₙ) and kd (koff) were derived from reference flow cell and 0 nM blank-subtracted sensorgrams, and were fit to a 1:1 binding model in Biacore® T200 Evaluation Software v.2.0. The affinity constant, KD was calculated as the ratio of rate constants koff/kₒₙ for each VISTA antibody. Ratios of koff and KD at each pH relative to pH 6.0 were calculated to evaluate how the VISTA koff and KD change as the buffer pH shifts to physiological, and are shown in Table 7. […] As the buffer pH shifts from acidic to physiological, VISTA koff and KD both weaken for ‘761 and ‘767. Physiological pH data for ‘761 and ‘767 for comparison is referenced from Table 7 and noted with an asterisk (*).

The target is the same in assay [4]. As to the kind of experiment: SPR 37C, Ab on Protein A, hVISTA-ECD 50-5 nM, pH 7.4, average. On the procedure: Binding of several preparations of each of the ‘029 progeny clones and of the parent ‘029 antibodies, formatted as IgG1.3 antibodies, to human VISTA at pH 6.0 and 7.4 was measured by Surface plasmon resonance (SPR). SPR analysis was performed to measure koff and KD binding affinity measurements for VISTA Abs at acidic and neutral pHs using a Biacore® T100 instrument (GE Healthcare). […] Antibodies were diluted to 25 nM in PBST pH 7.4, and were captured across active biosensor flow cells at 5 ul/min for 60 seconds. A concentration series of 50 - 5 nM monovalent hVISTA-ECD (SEQ ID NO: 325) was prepared in pH 7.4 and 6.0 running buffers, and was injected over the captured antibodies at 40 ul/min to measure association and dissociation. Two 15 second injections of 10 mM glycine pH 1.5 were used to regenerate the Protein A capture surface between assay cycles. Rate constants ka (kₒₙ) and kd (koff) were derived from reference flow cell and 0 nM blank-subtracted sensorgrams, and were fit to a 1:1 binding model in Biacore® T200 Evaluation Software v.2.0. The affinity constant, KD was calculated as the ratio of rate constants koff/kₒₙ for each VISTA antibody.

Assay [5] shares this target. Nature of the assay: SPR 37C, pH 7.4 * over pH 6.0.
The target is the same in assay [6]. Nature of the assay: SPR 37C, pH 7.4 *, value referenced from the 1600 nM assay (same as the 4th table r7).

Substitutions are numbered along the chain they refer to.

T1 sequence (Q9H7M9 other isoform, or with tags, fused parts or gaps limits assumed): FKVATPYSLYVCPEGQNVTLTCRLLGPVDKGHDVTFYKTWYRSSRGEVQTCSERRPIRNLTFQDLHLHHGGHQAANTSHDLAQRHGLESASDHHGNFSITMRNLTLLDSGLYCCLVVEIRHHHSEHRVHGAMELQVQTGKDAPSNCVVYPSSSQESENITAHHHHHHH

B1: P1-061029.IgG1.3 (antibody)
heavy: EVQLVESGGGLVQPGKSLRLSCAASGFTLDDYAMHWVRQAPGKGLEWVSGINWNSANIGYADSVKGRFTISRDNAKNSLYLQMNSLRTEDTALYYCAKVPGYSGGWIDAFDVWGQGTMVTVSSASTKGPSVFPLAPSSKSTSGGTAALGCLVKDYFPEPVTVSWNSGALTSGVHTFPAVLQSSGLYSLSSVVTVPSSSLGTQTYICNVNHKPSNTKVDKRVEPKSCDKTHTCPPCPAPEAEGAPSVFLFPPKPKDTLMISRTPEVTCVVVDVSHEDPEVKFNWYVDGVEVHNAKTKPREEQYNSTYRVVSVLTVLHQDWLNGKEYKCKVSNKALPAPIEKTISKAKGQPREPQVYTLPPSREEMTKNQVSLTCLVKGFYPSDIAVEWESNGQPENNYKTTPPVLDSDGSFFLYSKLTVDKSRWQQGNVFSCSVMHEALHNHYTQKSLSLSPG
light: not shown
notes: IgG1.3; also called P1-061029 (parent); P1-061029-18
On to B1, for which, in assay [1], the “7.4 KD/ 6.0 KD” value is 4.5 and the “7.4 kd/ 6.0 kd” value stood at 1.1. Besides, in assay [2], the “KD ratio to pH 6.0” value turned out to be 13.2 and the “koff ratio to pH 6.0” value turned out to be 1.1. In assay [3], the Kd (as a rule, the equilibrium constant for the complex coming apart) is 26 nM; the koff (usually the rate constant with which the complex falls apart) was 0.0064 s⁻¹; the kon (in general, a measure of how fast the partners come together) was determined as 250000 M⁻¹ s⁻¹. In assay [4], this molecule displayed a Kd of 19 nM, a koff of 0.0056 s⁻¹ and a kon of 290000 M⁻¹ s⁻¹.

B2: P1-068761.IgG1.3 (antibody)
heavy: B1 heavy with D30E, Y32E, A56E, N57E, G104H, F110E
light: not shown
notes: IgG1.3; also called P1-068761-20; P1-068761 hIgG1.3f
B2: in assay [5], the “KD ratio to pH 6.0” value is around 10000 and the “koff ratio to pH 6.0” value is around 63.6. In assay [6], this molecule returned a Kd of 11000 nM, a koff of 0.042 s⁻¹ and a kon of 3800 M⁻¹ s⁻¹.
